Numbering of substitutions follows the chain as printed.
B1: L3H5 (antibody, human IgG1, kappa, V domains shown)
VH: QVQLVQSGAEVKKPGASVKVSCKASGYTFTNYDINWVRQATGQGLEWMGWIFPGDGSTQYNEKFQGRVTMTTNTSISTAYMELSSLRSEDTAVYYCARQTTATWFAYWGQGTLVTVSS
VL: EIVMTQSPDFQSVTPKEKVTLTCRASQSISDYLHWYQQKPDQSPKLLIKYASQSISGVPSRFSGSGSGSDFTLTINSLEAEDAGVYYCQNGHSFPLTFGQGTKLEIKR
notes: Humanized IgG1, HEK293; chains tied by the L/H names; also called YB8 L3 + YB8 H5
B2: L4H2 (antibody, human IgG1, kappa, V domains shown)
VH: B1 VH with V5Q, M48I, Q65K, V68A, M70L, T72R
VL: B1 VL with V58I, S69T, L78V
notes: Humanized IgG1, HEK293; chains tied by the L/H names; also called YB8 L4 + YB8 H2
B3: L4H3 (antibody, human IgG1, kappa, V domains shown)
VH: B1 VH with Q65K, M70L, T72R, Y95F
VL: B1 VL with V58I, S69T, L78V
notes: Humanized IgG1, HEK293; chains tied by the L/H names; also called YB8 L4 + YB8 H3
B4: L4H1 (antibody, human IgG1, kappa, V domains shown)
VH: B1 VH with M48I, M70L
VL: B1 VL with V58I, S69T, L78V
notes: Humanized IgG1, HEK293; chains tied by the L/H names; also called YB8 L4 + YB8 H1
B5: L4H6 (antibody, human IgG1, kappa, V domains shown)
VH: B1 VH with V5Q, V20L, M48I, N61A, E62Q, V68A, M70L, Y95F
VL: B1 VL with V58I, S69T, L78V
notes: Humanized IgG1, HEK293; chains tied by the L/H names; also called YB8 L4 + YB8 H6
B6: L4H4 (antibody, human IgG1, kappa, V domains shown)
VH: B1 VH with M48I, Y95F
VL: B1 VL with V58I, S69T, L78V
notes: Humanized IgG1, HEK293; chains tied by the L/H names; also called YB8 L4 + YB8 H4
B7: L3H6 (antibody, human IgG1, kappa, V domains shown)
VH: B1 VH with V5Q, V20L, M48I, N61A, E62Q, V68A, M70L, Y95F
VL: B1 VL
notes: Humanized IgG1, HEK293; chains tied by the L/H names; also called YB8 L3 + YB8 H6
B8: L4H5 (antibody, human IgG1, kappa, V domains shown)
VH: B1 VH
VL: B1 VL with V58I, S69T, L78V
notes: Humanized IgG1, HEK293; chains tied by the L/H names; also called YB8 L4 + YB8 H5

Each binder was assayed against T1, 4Ig human B7-H3 (human, UniProt Q5ZPR3 29-466, limits assumed) (assay: SPR, Carterra LSA; antibody captured on anti-human Fc lawn, 4Ig human B7-H3 as analyte).
T1 construct: Soluble analyte in SPR; also called 4Ig-B7H3; 4Ig B7H3
T1 sequence: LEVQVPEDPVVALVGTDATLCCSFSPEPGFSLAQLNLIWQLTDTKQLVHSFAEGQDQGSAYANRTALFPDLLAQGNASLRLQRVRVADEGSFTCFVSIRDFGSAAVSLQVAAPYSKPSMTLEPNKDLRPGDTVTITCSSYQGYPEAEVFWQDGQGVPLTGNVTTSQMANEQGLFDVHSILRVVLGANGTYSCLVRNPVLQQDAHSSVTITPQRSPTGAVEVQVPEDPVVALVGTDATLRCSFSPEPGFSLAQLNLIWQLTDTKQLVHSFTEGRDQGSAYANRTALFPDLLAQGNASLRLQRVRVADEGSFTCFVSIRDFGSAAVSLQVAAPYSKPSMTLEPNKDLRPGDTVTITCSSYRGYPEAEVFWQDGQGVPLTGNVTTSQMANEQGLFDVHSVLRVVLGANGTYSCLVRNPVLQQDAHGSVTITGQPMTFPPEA
Protocol: Chimeric and humanized antibodies were generated using CDR grafting methods using closely homologous human germline sequences. Six different humanized VH and four humanized VL sequences were combined to generate 24 different humanized IgG1 antibodies. The antibodies were expressed in HEK293 cells and purified using Protein A resin. Antibodies were buffer exchanged into PBS and quantified by OD280 and titer was calculated. Sample purity and aggregation status was determined by analytical Size Exclusion Chromatography (SEC-HPLC), which separates molecules based on molecular mass and hydrodynamic volume. Area % of each peak is calculated based on total area of the peaks. Peak symmetry is calculated to determine the peak fronting (<1) or tailing (>1). A column of 300A pore size was used for detection at 280 nm and PBS as the running buffer. Surface plasmon resonance studies to assess binding affinities were carried out on a Carterra LSA instrument. An anti-human Fc antibody “lawn” was prepared on a HC30M chip by amine coupling. The chip was activated with equal volume of 100 mM MES pH 5.5, 100 mM S-NHS and 400 mM EDC. The anti-human IgG Fc antibody was immobilized. The chip was deactivated with 1 M ethanolamine pH 8.5. Antibodies were diluted and printed onto the anti-human Fc lawn. An 8-point series of 4Ig human B7-H3 was prepared.
The characterization data, including expression titers (mg of purified protein per L of culture), purity (% monomer peak by analytical SEC-HPLC) and affinity measurement by SPR (ka, kd and KD) are summarized in Table 1 and FIG. 1-4.

Binder | Kd [nM] | koff [s⁻¹] | kon [M⁻¹ s⁻¹]
B1 | 9.2 | 0.00035 | 38000
B2 | 11 | 0.00039 | 36000
B3 | 13 | 0.00039 | 31000
B4 | 23 | 0.00055 | 24000
B5 | 9.6 | 0.00042 | 43000
B6 | 11 | 0.00036 | 34000
B7 | 20 | 0.0005 | 25000
B8 | 9.3 | 0.0004 | 43000
